Data as given in paper doi:10.1101/2021.04.26.440876, “Fluoxetine targets an allosteric site in the enterovirus 2C AAA+ ATPase and stabilizes the hexameric complex” (bioRxiv, 2021).

Target: the molecule itself
Assay: SEC; size exclusion chromatography gel filtration profile of the MBP-tagged full-length preparation (Figure S9)

B1: MBP-tagged full-length CV-B3 2C (natural protein)
chain: NNSWLKKFTEMTNACKGMEWIAVKIQKFIEWLKVKILPEVREKHEFLNRLKQLPLLESQIATIEQSAPSQSDQEQLFSNVQYFAHYCRKYAPLYAAEAKRVFSLEKKMSNYIQFKSKCRIEPVCLLLHGSPGAGKSVATNLIGRSLAEKLNSSVYSLPPDPDHFDGYKQQAVVIMDDLCQNPDGKDVSLFCQMVSSVDFVPPMAALEEKGILFTSPFVLASTNAGSINAPTVSDSRALARRFHFDMNIEVISMYSQNGKINMPMSVKTCDDECCPVNFKKCCPLVCGKAIQFIDRRTQVRYSLDMLVTEMFREYNHRHSVGTTLEALFQ
notes: coxsackievirus B3 non-structural protein 2C (cut product of the polyprotein), full length (329 residues by the printed limits of the other constructs); source: purified
binding result: binds
